Key:
[1] = target: fully glycosylated CmeA (g2CmeA) (Campylobacter jejuni) (UniProt Q0PBE3); assay: SPR
[2] = target: non-glycosylated CmeA (g0CmeA), periplasmic fusion protein of the CmeABC multidrug efflux pump (Campylobacter jejuni) (UniProt Q0PBE3); assay: SPR

CmeC, outer membrane associated channel of the CmeABC multidrug efflux pump (natural protein)
Kd [1]: 5 nM | koff [1]: 0.00075 s⁻¹ | kon [1]: 150000 M⁻¹ s⁻¹ | Kd [2]: 17 nM | koff [2]: 0.0009 s⁻¹ | kon [2]: 50000 M⁻¹ s⁻¹
